From patent US20160039903A1 (Stanford University, published 2016) come the findings set out here.

Substitutions are numbered along the chain they refer to. Like-named read-outs stand apart in the source and are kept apart here. Some results are limits rather than exact numbers.

In experiment [1] the target is T1, human PD-L1 on cells (human, UniProt Q9NZQ7 19-290).
T1 construct: also called hPD-L1; PD-L1 on IFNγ-induced SK-MEL-28 (SKMEL28) cells
Briefly: flow cytometry of a dissociated CT26 hPD-L1 positive tumor 4 h after intraperitoneal injection of both labeled agents; same quadrant of the PD-L1 negative tumor: 3.97 [panel CT26, hPD-L1 positive].

The target in experiment [2] is T2, recombinant biotinylated human PD-L1 ectodomain (IgV and IgC domains, residues 19-239) (human, UniProt Q9NZQ7 19-239, enzymatically biotinylated (BirA) on the biotin acceptor peptide).
T2 construct: also called biotinylated hPD-L1; biotinylated PD-L1; not shown: carboxy-terminal 8x histidine tag
T2 sequence (Q9NZQ7 other isoform, or with tags, fused parts or gaps): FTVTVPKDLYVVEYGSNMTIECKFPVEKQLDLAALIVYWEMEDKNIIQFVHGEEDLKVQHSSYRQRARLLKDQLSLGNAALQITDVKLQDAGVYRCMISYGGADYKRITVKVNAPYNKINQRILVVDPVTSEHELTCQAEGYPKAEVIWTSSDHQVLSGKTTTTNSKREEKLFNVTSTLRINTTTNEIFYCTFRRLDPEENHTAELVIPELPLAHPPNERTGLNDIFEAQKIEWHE
Kind of experiment: surface plasmon resonance, biotinylated hPD-L1 immobilized on a streptavidin chip; column head 'PD-L1 affinity'.

The target in experiment [3] is T2, recombinant biotinylated human PD-L1 …. The description is as above. The source holds these as a separate data set.
Experiment [4] addresses T3, human PD-L1 displayed on yeast (residues 19-132) (human; S. cerevisiae, UniProt Q9NZQ7 19-132).
T3 construct: also called yeast displaying human PD-L1; not shown: Aga2 of S. cerevisiae (pYAL vector); linker and tag between not g
Briefly: competition flow cytometry on yeast displaying human PD-L1; competitor probe: labeled native PD-1 streptavidin tetramer.

For experiment [5], the target named is T2, recombinant biotinylated human PD-L1 …. Kind of experiment: SPR, biotinylated PD-L1 on streptavidin chip.
For experiment [6], the target named is T1, human PD-L1 on cells. Kind of experiment: competition flow cytometry on IFNγ-induced SK-MEL-28 cells, 100 nM labeled PD-1 tetramer as competitor.
Experiment [7] addresses T4, mouse PD-L1 on B16-F10 cells (mouse, UniProt Q9EP73 19-290).
T4 construct: whole, on cells; also called mPD-L1; PD-L1 on murine B16-F10 cells
Briefly: competition flow cytometry on murine B16-F10 cells, 100 nM PD-1 tetramer as competitor; wild-type hPD-1 on murine B16-F10 cells.

The target in experiment [8] is T5, human PD-L2 displayed on yeast (residues 20-123) (human; S. cerevisiae, UniProt Q9BQ51 20-123).
T5 construct: also called yeast displaying hPD-L2; ectodomain of hPD-L2; not shown: Aga2 of S. cerevisiae (pYAL vector); linker and tag between not g
T5 sequence: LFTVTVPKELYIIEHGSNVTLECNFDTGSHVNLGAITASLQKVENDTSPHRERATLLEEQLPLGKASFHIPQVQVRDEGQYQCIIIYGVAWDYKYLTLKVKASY
Briefly: competition flow cytometry on yeast displaying the ectodomain of hPD-L2, 100 nM PD-1 tetramer as competitor; wild-type PD-1 on yeast displaying hPD-L2.

For experiment [9], the target named is T5, human PD-L2 displayed on yeast …. Kind of experiment: competition flow cytometry on yeast displaying human PD-L2; competitor probe: labeled native PD-1 streptavidin tetramer.

T1 sequence (Q9NZQ7 19-290 limits assumed): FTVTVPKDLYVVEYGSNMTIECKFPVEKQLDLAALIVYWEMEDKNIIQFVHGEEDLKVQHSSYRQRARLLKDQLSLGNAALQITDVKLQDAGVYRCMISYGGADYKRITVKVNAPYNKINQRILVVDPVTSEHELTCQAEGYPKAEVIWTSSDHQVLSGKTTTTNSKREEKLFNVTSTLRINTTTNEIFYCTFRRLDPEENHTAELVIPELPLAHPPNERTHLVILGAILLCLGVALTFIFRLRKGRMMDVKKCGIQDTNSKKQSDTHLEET
T3 sequence (Q9NZQ7 19-132 limits assumed): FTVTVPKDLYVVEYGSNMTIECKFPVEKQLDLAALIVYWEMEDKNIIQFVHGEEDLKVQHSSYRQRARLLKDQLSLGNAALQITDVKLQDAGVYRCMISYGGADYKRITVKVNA
T4 sequence (Q9EP73 19-290): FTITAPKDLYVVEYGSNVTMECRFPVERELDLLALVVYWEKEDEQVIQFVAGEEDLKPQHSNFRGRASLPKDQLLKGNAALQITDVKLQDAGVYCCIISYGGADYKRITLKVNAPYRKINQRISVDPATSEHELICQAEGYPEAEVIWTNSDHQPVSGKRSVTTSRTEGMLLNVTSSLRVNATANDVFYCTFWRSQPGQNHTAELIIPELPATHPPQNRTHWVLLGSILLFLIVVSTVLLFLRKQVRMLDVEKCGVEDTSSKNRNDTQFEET

“AlexaFluor 488-conjugated anti-hPD-L1 antibody (clone 29E.2A3, BioLegend)” gave a percent of cells in the quadrant HAC 594 negative, Anti-hPD-L1 488 positive with human PD-L1 on cells [1] of 2.22%.

B1: G2 4-12 (designed binder)
PD-1 variant IgV domain: DSPDRPWNPPTFSPALLVVTEGDNATFTCSFSNTSESFHVVWHYESPSGQTDTLAAFPEDRSQPGQDARFRVTQLPNGRDFHLSVVRARRNDSGTYVCGIISLAPKIQIKESLRAELRVTER
notes: also called Generation 2, clone 4-12
For the molecule B1, the Kd in [2] and in [3] was 0.218 nM in each case.

B2: G2 4-5 (designed binder)
PD-1 variant IgV domain: B1 PD-1 variant IgV domain with Y44R, G49S, Q66P, H82Q, I100V
notes: also called Generation 2, clone 4-5
On to B2, for which the Kd in [2] and in [3] was 0.196 nM each time.

B3: G1 4-1 (designed binder)
PD-1 variant IgV domain: DSPDRPWNPPTFSPALLVVTEGDNATFTCSFSNTSESFRLVWHRESPGYETDTLASFPEDRSTPLPDCRFRVTQLPNGRDFHMSVVRARRNDSGTYVCGAIAFHPVIQIKESLRAELRVTER
notes: also called Generation 1, clone 4-1
Turning to B3, the Kd in experiment [2] and in experiment [3] was 7.78 nM each time. The “IC50 (read off the curve)” value in experiment [4] is approximately 100 nM.

B4: G1 4-4 (designed binder)
PD-1 variant IgV domain: DSPDRPWNPPTFSPALLVVTEGDNATFTCSFSNTSESFRLVWHRESPNNHAYTLALFPEDRSLPFPDCRFRVTQLPNGRDFHMSVVRARRNDSGTYICGAITFDPRIQIKESLRAELRVTER
notes: also called Generation 1, clone 4-4
In the case of B4, the Kd in experiment [2] and in experiment [3] was 10.7 nM each time. Further, the “IC50 (read off the curve)” value in [4] is approximately 100 nM.

B5: wild-type human PD-1 IgV domain (residues 26-147), native PD-1 mimic polypeptide (receptor)
chain: DSPDRPWNPPTFSPALLVVTEGDNATFTCSFSNTSESFVLNWYRMSPSNQTDKLAAFPEDRSQPGQDCRFRVTQLPNGRDFHMSVVRARRNDSGTYLCGAISLAPKAQIKESLRAELRVTERHHHHHHHH
notes: Soluble monomer secreted from High Five insect cells; also called wild-type hPD-1; WT PD-1 monomer
Take B5: the dissociation half-life in experiment [5] was less than 1 s. Besides, the IC50 with human PD-L1 on cells [6] turned out to be 8200 nM; in experiment [7], 2600 nM; in experiment [8], 2500 nM. Besides, the Kd in experiment [2] and in [3] was 3880 nM in each case.

B6: G2 4-2 (designed binder)
chain: DSPDRPWNPPTFSPALLVVTEGDNATFTCSFSNTSESFHIIWHRESPSGQTDTLAAFPEDRSQPGQDARFRVTQLPNGRDFHLSVVRARRNDSGTYVCGVISLAPKIQIKESLRAELRVTERHHHHHHHH
With B6, the Kd in [2] and in [3] was 0.222 nM throughout. The binding result in experiment [9] is “no binding (tested: 1e-6 M (Log[Inhibitor (M)] = -6))”.

B7: G2 4-1 (Generation 2, clone 4-1) (designed binder)
chain: B6 chain with I40V, I41V, Q66P, V100A
Take B7: the Kd in experiment [2] and in [3] was 0.267 nM each time. In addition, the binding result in experiment [9] was “no binding (tested: 1e-6 M (Log[Inhibitor (M)] = -6))”.
